In the DeepSol protein solubility set:

Test: soluble on expression in E. coli; label from the status in PepcDB or PDB records

Sequence | soluble on expression in E. coli
MSSRKQGSQPRGQQSAEEENFKKPTRSNMQRSKMRGASSGKKTAGPQQKNLEPALPGRWGGRSAENPPSGSVRKTRKNKQKTPGNGDGGSTSEAPQPPRKKRARADPTVESEEAFKNRMEVKVKIPEELKPWLVEDWDLVTRQKQLFQLPAKKNVDAILEEYANCKKSQGNVDNKEYAVNEVVAGIKEYFNVMLGTQLLYKFERPQYAEILLAHPDAPMSQVYGAPHLLRLFVRIGAMLAYTPLDEKSLALLLGYLHDFLKYLAKNSASLFTASDYKVASAEYHRKALLEHHHHHH | not soluble
MAHHHHHHMAVVVVQVGQCGNQLGDELWRQLKLTTNSGALPSPFFTRDRRARCVLVDSEPKVVTAVYERQKDVLRAENVIHGQSGRGNHWALGYYGVNDPLSHRAAENAVVARPFQVVKDQRRCDSHVVRNALRAIHAETRRTDDVMEFEAIIVLHSLVGGTGSGMATRLLEKIRYYFIEPLDSSLTVDECEEAEMMRHDGLDGMMMEKRRASYLVSITVAPQAVGELSTQGLNAALTLHALQENANAVLLLRNDDCIRVQEDSCAGGRPRGRGNTSFSTPSFSSIPSCATFKEINEVFLTMLLPILLYGRSTNAVGELVLKCSPNPREINNILTILPTPQRHYLRFKESVTVSRLYVLRGAMQNMPGVYPSVPIELIHTARSLRNPNLVTSREEVQVPKELLKGLKETAATRRSASVTLLQQMEGVLVLNEARELNAAVLFRLLRSAAMKVKAGAFLSTFEDMGMTAECIQAAIREVATRLSAAEEI | not soluble
MSLELTVFSIGDWGEKTECLVNVTTKMGSLESAMNPKFIISVGDNFYQRGVKSVEDAAWTEILEEPFGKLSKHLKVHSCLGDHDWRGSTTAQIDRTNYANNTRWYLPGYWWYEKVTFTSEVSLPSLFEKSGLGEISANNSFHFNSSKTENSTSCEIDCLDEIVDNLNTMVNRNNSWNEDLSYKTSISEYFSEKQVNSTAVFIYIDSWTLTQDPFKKTSISYKYSQLEFIEQTLKAAVFENVDWIILVTHYSIYSSGLHGPHTRLASILMPLIKKYRVDFIISGHDHHSEILVPEDFNSYFQIVGASSKEGHHHHHH | soluble
MAHHHHHHMRNVLFNGPMIPEIDAGYNVQVNGVSVNFLKDPFCFRNVVIENAYYKNKLLYKNFNDDNVNKNITNHIKRENIVELDKEFNECIKDSLNNNHVHIKKNEPDYKLNDIKSPIYKERTKYTPKIIEVIKTNYNVPHDERVKIHKENLMYMNNIEYKKANEIVEKVILTIKNETIQKPVELANDEPNNILKPNNIFKKMLL | not soluble
MNVTVAPQDETLSARAGRVATIAAKHADDVDVTGRFPQEAVDALRRERLLGIQVPSSLGGEGASIQEIADICARLGQACSATAMIFAMHHIKLSSLVEHGVDSTWHPGFMRRVAGEQLLLGSATTEGGIGGNLRNSICAIEVEGDSCRLEKDATVISYGSNADAILITSRAHKDAAPADQVMTVFLKNQYTLEKTHVWDTLGMRGTCSDGFLFRGEAPAAQIFPKPFAEIAAQSMLASSHLLWSAVWYGIASDAVLRAQSFVRAAARKSPGTAPPGAIRLAEVSTKLQVVKSNIIAGIKAYEDTKSDPEKLMSMAFAVAMNNVKICSSETILEIIDHAMLVCGIMGYKNGTPYSLGRHLRDAHSARLMISNDRILGNSANLLLVHRQDTSLLG | soluble
MGSDKIHHHHHHMMSRPIILGIVGDSAAGKTTLTRGIAQVLGPENVTLICTDDYHRYDRQQRAEIGITALHPDCNHLDIMQQHLSLLRTGQPILKPVYSHKTGSFEPPQYIKPNKFVIIEGLLGYSTRAARDCYDVKVYLAPPENLRAKWKVKRDTQKRGYTPEQVLAELEKREPDSEQFIRPQRQWSDIVVSFYPPHEDGDETNGHLNVRLVLRPTIPHPDFTSIINLTNGSSVSAIRLGLDRDMSKPVDVLEVDGHATLEQVNKLEHILCSDMPYLSSVCDRESNPELGKIAGTTGETLQSYPLALTQLIITYHMLKATQIYQ | not soluble
MKPILALLSLLALPVMAAEPTLYGRYENIKVLEIGQTFKAKMDTGALTASLSAKDIELFQRDGDDWVRFRLATKGADDKVYEHKVSRISKIKGRAEGDDEDDEGINPAKRPVVDLELCLGNKKRTVEVNLVDRSHFNFPLLIGAKALREFGAAINPARRYTADEPDC | not soluble
MAHHHHHHMRANPIERRKERETALSVRQRELEELRQRKAQLGEELGMELSALEGDNLAAAFPVIQYCGSRPKKDAKKIPVESLGSVMNQFEIAIKAISQNNRDIEQQITDLNRTIGVEAQRFTKLKRHSKELADATGVSLDPNAVQHLAGKSRDGEDCSGGLKELEETTVVLEERKALVEKEIRAARQLVKKKEEAVLAMSSALESRQEEIDQLNRLYNDIRVVDRDIKCEKETLREIISEHDIVDTKLNEAIERNVSRTRLLIEQGINEIKTEIADSVSVSRRGQERVMKAQEFRIDQLEKRLDCINKALKNNHLTRDVEAIVSHKWAAAGDALVAATPDESMYDIEAIIPPQERCHPAIYNLLLTEKERLARRISLLGIIAKEKKEVIDALACKAEALARECQQAIQELDHVASAAAYEEEMQRVEAMEYIQKQRLHYSDLFKEMWKLKTKNQGPLWRAY | not soluble
SLSGGKYVDSEGHLYTVPIREQGNIYKPNNKAMADELSEKQVYDAHTKEIDLVNRDPKHLNDDVVKIDFEDVIAEPEGTHSFDGIWKASFTTFTVTKYWFYREG | not soluble
EFVDPSWNYFDNRVHDIAIMEGQSQTKKWQKWLSQIEKRFGVDRNILLAIWSMESNYGKVLANKDVMRDTIRSLATLAYADQKRAKYAQAQLIAAMTILQNGEITRAQLTGSWAGAMGHTQFIPSSYLAYAIDMDGDGRRDIWTSVPDALATAANLLYMNGWQSKLPWGVEVKLPQGKNLPEDWHSFEQWAKLGVKQANGKHLPSLSERAILKYPDGPEGPIFLVTKNFFVLKRYNNADRYAFAVALLANRIAGHSGL | not soluble
MEHITLFTDILPEEQERMRICFHAREMTFRNGETIMEYSSSMKKIGLILYGRAILYCCDTEGNQYLIDEFNKDAVFGEPFLLPADSQHYYVCAAEETKIMFIDYEHVIKRCDQACYHHSQMVSNLLQLTAIQSRQQNERIYMLSRSSTRKKLMAYLNALSTEKHSKDLKLPMSYTALAQYLSVDRSAMTRELKNLEEEGIIKKSGKQIHII | not soluble
MNPILTAAKQLLHKEEKILSTLKCSLTGYMITHKVPYPGMLLATNQRLLFFSQYKNTFIAEFDYEKILSIETKRRIFDKKIIFYYEDEYITLGYITSSNVEAFIDLLQRNSKTSTGL | not soluble
MGHHHHHHSHLKDNRVVTMEVEARNLDKKDFLGKSDPFLEFFRQGDGKWHLVYRSEVIKNNLNPTWKRFSVPVQHFCGGNPSTPIQVQCSDYDSDGSHDLIGTFHTSLAQLQAVP | not soluble
MNTRQLLSVGIDIGTTTTQVIFSRLELVNRAAVSQVPRYEFIKRDISWQSPVFFTPVDKQGGLKEVELKALILAQYQAAGIAPESVDSGAIIITGESAKTRNARPAVMALSQSLGDFVVASAGPHLESVIAGHGAGAQSLSEQRMCRVLNIDIGGGTSNYALFDAGKVSGTACLNVGGRLLETDAQGRVVYAHQPGQMIIDEVFGSGTDARALAAAQLGQVARRMADLIVEVITGALSPLAQSLMQTGLLPADITPEVITLSGGVGECYRNQPADPFCFSDIGPLLATALHEHPRLREMNVQFPAQTVRATVIGAGAHTLSLSGSTIWLEDVQLPLRNLPVAIPQDDADLVNAWRQALLQLDLDPQTDAYVLALPATLPVRYAALLTVINALTAFVARYPNPHPLLVVAEQDFGKALGMLLRPQLPQLPLAVIDEVVVRAGDYIDIGTPLFGGSVVPVTVKSLAFPS | not soluble
MDIKNSPSSLNSPSSYNCSQSILPLEHGSIYIPSSYVDSHHEYPAMTFYSPAVMNYSIPSNVTNLEGGPGRQTTSPNVLWPTPGHLSPLVVHRQLSHLYAEPQKSPWCEARSLEHTLPVNRETLKRKVSGNRCASPVTGPGSKRDAHFCAVCSDYASGYHYGVWSCEGCKAFFKRSIQGHNDYICPATNQCTIDKNRRKSCQACRLRKCYEVGMVKCGSRRERCGYRLVRRQRSADEQLHCAGKAKRSGGHAPRVRELLLDALSPEQLVLTLLEAEPPHVLISRPSAPFTEASMMMSLTKLADKELVHMISWAKKIPGFVELSLFDQVRLLESCWMEVLMMGLMWRSIDHPGKLIFAPDLVLDRDEGKCVEGILEIFDMLLATTSRFRELKLQHKEYLCVKAMILLNSSMYPLVTATQDADSSRKLAHLLNAVTDALVWVIAKSGISSQQQSMRLANLLMLLSHVRHASNKGMEHLLNMKCKNVVPVYDLLLEMLNAHVLRGCKSSITGSECSPAEDSKSKEGSQNPQSQ | soluble
MGSDKIHHHHHHMTKLDSFHLGELYRELRVARGLKMKDVVSDKLSQAQLSKFENGQTMLSADKLLTAISAIHMSFAEFEHAYYQYEDSSFFKQAKLISKYHSNKNIEGLEKLLIIHDNNSETYDVYDKLNKLVIRCAIHDLNPEYIISDDDKDFITTYLYSIEEWTEYELYIFGNTLQVLSDSDLIFLSKSFIERDSLYLSIPNNNFRTQLVVLNIIFVLLERKKDYCVHYFMKHLESILTYQDMFVKTVLIFLKKVLNYREGKGTHLIDLKKYIHDVEELGHEDVAEFLKDNIVNLL | not soluble
MLQKLIQILRRNEYVKNVYKNTVSNFIETSIPEITPFNARTSSIKGKRLNLLVPSINQEHMFGGISTALKLFEQFDNKKFKKRIILTDATPNPKDLQSFKSFKYVMPEEDKDFALQIVPFNDRYNRTIPVAKHDIFIATAWWTAYAAQRIVSWQSDTYGIPPNKILYIIQDFEPGFYQWSSQYVLAESTYKYRGPQIAVFNSELLKQYFNNKGYNFTDEYFFQPKINTTLKNYINDKRQKEKIILVYGRPSVKRNAFTLIVEALKIFVQKYDRSNEWKIISVGEKHKDIALGKGIHLNSLGKLTLEDYADLLKRSSIGISLMISPHPSYPPLEMAHFGLRVITNKYENKDLSNWHSNIVSLEQLNPENIAETLVELCMSFNNRDVDKKESSNMMFYINEFNEFSFIKEIEEKL | soluble
TINPVMQQVAYDQLTAKGYTGSVVAIEPSTGRILTMVSTPSYDPNSLASHDGTETTQAWEALNADPEKPLINRAVSQTYPPGSTFKVVVTAAALAAGTTPDTQLTAAPQITLPGTSTTLENYNGSTCGGAPTASLREAFARSCNTAFVELGVKTGTDAVSDQSSALGIGGQMPGVPFPVADSTIGSIPDDAALGQSSIGQRDVALTPLQNAMIAATVANGGVRMQPQLVSELQGPDLSNLATTNPVSEGQAMSSQVAATLTDLMIGSENNTSGEGKIPGVQIASKTGTAEHGTDPRNTPPHAWYIGFAPAQNPTVAIAVIVEDGGDRALAATGGSVAAPIGRAVIAAGLQGG | not soluble
MGSDKIHHHHHHMKISLGPLLYCWEKQQVIDFYQQVANSQIPLVYLGEAVCSRRRELKWGDYLELAKMLKSAGKDVVLSTLALIEAPSEYTELKRQVDNGEFMIEANDMAAVYLAKEHKQPFVCGASINNYNRASLDILQRLGMQRFVMPVELSKTWLSQVVDKKPSFEVEVLGHGYLPLAHSARCFTARHSQLAKDSCETVCRQYSKGLLAQTQEAQPLLRLNGIQTQSASCVDLRSEISAMVKIGVDVFRVSPSSLACIAKADALVEALNSGAMDAQYPLSDEHCNGYWFGEAGLKSLS | not soluble
MLTFVSPVFGAPKKRKWFSKLSGKQLCCFRCVSCLQVEQPSRSHPNYWRNIAREVNKTLKEHSLEANNPINVTDEDSSVFVDTTTDEREEGGPTFIQQSSRVQLDSAEISHSNSMTTDSHSLYQNNSPNSTGMEEEPSDYSVQFSTSWNPNTSWLQFPDLVESADIRRKTQEISKHQKEDVFKYYIDSENNLRPFHDAISPMHIFSKESETQTVSEPSAWENWHQLSQKGNEDSSSLDESLDDEWSEIDRWRPVAVELEGYNPKLTEDTSEEVRIEKNKLSKRREAVAWQKWFSTQQYNLSSELWERRIGVTGKDCDKNTSIYKQWLADMEQGLEP | not soluble
